US20050003401, “Pfu replication accessory factors and methods of use” (Stratagene, published 2005)

What was measured:
[1] = molecular target: SSB (single-stranded DNA binding protein) (Escherichia coli, UniProt P0AGE0 P0AGE0:2-178); assay: EMSA; TE buffer; 95 C 10 min then 72 C 2 min; details: tags: Stratagene Perfect Match; chain copies: 4
Experimental: (§1) 50 ng of a 38-mer oligo was incubated with E. coli SSB (lane 1), water (lane 2), or P. furiosus RFA (lanes 3-7) in TE buffer (lanes 1-3), 1×cloned Pfu buffer (lane 4), 50 mM Tris pH 8.5, 25 mM KCl, 2 mM MgCl₂ (lane 5), 50 mM Tris pH 8.5, 25 mM KCl, 5 mM MgCl₂ (lane 6), or 50 mM Tris pH 8.5, 25 mM KCl, 2 mM ZnCl₂ (lane 7). Samples were incubated at 95° C. for 10 minutes, followed by 72° C. for 2 minutes prior to loading on a 4-20% acrylamide gradient gel in 1×TBE buffer. Bands were visualized by SYBR green staining and UV illumination.
(§2) To assess function, P. furiosus RFA was tested for single-stranded DNA binding activity in a gel shift assay (FIG. 18). […] The degree of migration of the oligo is related to the mass of the protein-DNA complex and the formation of protein multimers. E. coli SSB is known to form tetramers, but it is presently unknown whether P. furiosus RFA produces multimers as well.

[2] = molecular target: T1, RFA (replication factor A) (Pyrococcus furiosus); assay: EMSA; partial shift; 95 C 10 min then 72 C 2 min; details: tags: N-terminal CBP
T1 chain: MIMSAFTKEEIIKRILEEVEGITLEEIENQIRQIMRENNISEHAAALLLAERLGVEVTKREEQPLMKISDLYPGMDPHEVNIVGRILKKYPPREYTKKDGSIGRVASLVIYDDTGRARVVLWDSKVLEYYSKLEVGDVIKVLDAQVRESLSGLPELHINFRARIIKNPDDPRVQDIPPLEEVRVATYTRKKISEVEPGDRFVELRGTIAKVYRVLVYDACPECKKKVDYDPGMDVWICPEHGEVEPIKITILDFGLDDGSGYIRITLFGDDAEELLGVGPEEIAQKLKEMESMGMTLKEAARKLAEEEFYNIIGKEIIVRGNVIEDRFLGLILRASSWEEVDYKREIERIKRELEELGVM
Experimental: as §1, §2

SSB (single-stranded DNA binding protein), sequence (P0AGE0 2-178, one chain of several): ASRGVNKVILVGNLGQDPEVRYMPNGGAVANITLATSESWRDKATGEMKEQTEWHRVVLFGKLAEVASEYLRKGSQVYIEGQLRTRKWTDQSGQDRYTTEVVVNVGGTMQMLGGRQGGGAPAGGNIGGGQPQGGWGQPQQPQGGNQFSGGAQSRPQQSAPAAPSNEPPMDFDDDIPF

Binder: GGTTTTCCCAGTCACGACGTTGTAAAACGACGGCCAGT (ssDNA) [38-mer oligo]
- binding result [1]: binds
- binding result [2]: binds
